Measurements taken from patent US11407811B2, “Fusion protein, preparation method therefor and use thereof” (JIANGSU RONGTAI BIOTECH CO., LTD., priority 2017, dated 2022).

Legend:
[1] = system: xylene-induced ear swelling in mice; assay: Xylene-induced ear swelling in mice; type: in vivo; settings: for Swelling degree / PI: injection; for Swelling degree: 2 h after xylene, mice; for PI: ear swelling vs control
Description: 80 Kunming mice were divided into 8 groups with 10 mice for each group and numbered. A physiological saline group was used as a blank control group, an aspirin group (200 mg/kg) was used as a positive control group, and fusion protein I, protein II, protein III, protein IV and protein V at high, medium and low doses (128, 32, 8 mg/kg) were used as experimental groups. Mice were administered once by injection, while EDSM needed to be administered twice a day for 5 consecutive days. The blank control group was given an equal volume of physiological saline. After the fifth day, 0.05 mL of xylene was applied to both sides of the right ears of the mice to induce inflammation, and the left ears were not applied and were normal ears. After 2 h, the mice were sacrificed by dislocation, and the ears were cut along the auricle. Ear pieces were taken with a puncher and weighed, and the swelling degree and swelling rate were calculated. Swelling degree=right ear piece weight-left ear piece weight, swelling rate=(swelling degree/left ear piece weight)×100%.

[2] = system: melanoma cell line B16F10; assay: MTT assay, proliferation of melanoma cell B16F10; type: cell-based
Description: (§1) The MTT assay was used to detect the inhibitory effect of the integrin blocker fusion protein obtained in Example 1 on the proliferation of various tumor cells, including melanoma cell B16F10, gastric cancer cell MGC-803, lung cancer cell A549, liver cancer cell Hep-G2, breast cancer cell MDA-MB-231, colon cancer cell HCT-116, human glioma U87, and cervical cancer cell Hela.
(§2) The tumor cells were cultured in a 5% CO2 incubator at 37° C. to a density of 90% or more, and collected by trypsinization. The cells were resuspended in the culture liquid and counted under a microscope. The cell concentration was adjusted to 3.0×10^4 cells/mL. The cell suspension was inoculated into a 96-well plate at 100 μL per well and cultured overnight in a 5% CO2 incubator at 37° C. […] After the cells were fully adhered, each dilution was added to a 96-well plate at 100 μL per well, respectively. […] 20 μL of 5 mg/mL MTT was added to each well of a 96-well plate, and incubation was continued for 4 hours. The medium was aspirated and 100 μL of DMSO per well were added to dissolve. The absorbance was measured at 570 nm with a microplate reader with a reference wavelength of 630 nm, and the proliferation inhibition (PI) was calculated. The formula is as follows: […]
(§3) where Ntest is the OD value of the test group and Ncontrol is the OD value of the blank control group.
(§4) The test was repeated 5 times independently. The results obtained from the test were calculated as mean±SD, and statistical t-test was performed. P<0.05 was considered as a significant difference, and P<0.01 was considered as an extremely significant difference.

[3] = system: mouse spleen lymphocytes; assay: Proliferation of mouse spleen lymphocytes (ConA, MTT); type: cell-based; settings: for A570 nm/A630 nm / PI (%): with ConA 5 μg/mL
Description: Tris-NH4Cl was used to break the red blood cells, which were allowed to stand in an ice water bath for 4 min and centrifuged (1000 rpm, 5 min), the supernatant was discarded, and the cells were washed twice with sterile PBS.
The cells were statically cultured in a cell incubator at 37° C. for 48 h. After the completion of the culture, 20 μL of MTT was added to each well, and the culture was continued for 4 h. Finally, all the solutions in each well were discarded, 100 μL of DMSO was added to each well, and the mixture was shaken and detected by a microplate reader for OD value at 570 nm. 5 parallels were preformed for per well.

[4] = system: gastric cancer cell MGC-803; assay: MTT assay, proliferation of gastric cancer cell MGC-803; type: cell-based
Description: as §1, §2, §3, §4

[5] = system: iris neovascularization in rabbits; assay: Iris neovascularization in rabbits; type: in vivo, rabbit; settings: 128 μg, intravitreal injection once every 5 days for 2 weeks
Description: The argon ion laser at 577 nm was used to occlude the major branch vein of rabbit retina, and a success venous occlusion was confirmed by fundus fluorescein angiography (FFA).
9 eyes successful in modeling were randomly divided into […]. They were labeled as a negative control group, and fusion protein I, protein II, protein III, protein IV and protein V treatment groups, respectively, which were respectively given physiological saline, 128 μg of fusion protein I, 128 μg of protein II, 128 μg of protein III, 128 μg of protein IV and 128 μg of protein V via intravitreal injection once every 5 days for 2 weeks. The observation was performed with an optical and electron microscope on the third week.

B1: Protein II: IgG2-Fc linked to antiangiogenesis polypeptide EDSM-Y via a flexible linker; SEQ ID NO: 17 (protein)
chain: ERKCCVECPPCPAPPVAGPSVFLFPPKPKDTLMISRTPEVTCVVVDVSHEDPEVQFNWYVDGVEVHNAKTKPREEQFNSTFRVVSVLTVVHQDWLNGKEYKCKVSNKGLPAPIEKTISKTKGQPREPQVYTLPPSREEMTKNQVSLTCLVKGFYPSDISVEWESNGQPENNYKTTPPMLDSDGSFFLYSKLTVDKSRWQQGNVFSCSVMHEALHNHYTQKSLSLSPGKGGGGSGGGGSGGGGSFQPVLHLVALNSPLSGGMRGIRGADFQCFQQARAVGLAGTFRAGGGGRGD
[1]; 8 mg/kg
  Swelling degree: 6.21 ± 0.23 mg
  PI: 6.62%
[1]; 32 mg/kg
  Swelling degree: 5.18 ± 0.89 mg
  PI: 22.11%
[1]; 128 mg/kg
  Swelling degree: 3.87 ± 0.45 mg
  PI: 41.80%
[1]; high doses
  inhibition of xylene-induced ear swelling: could significantly inhibit xylene-induced ear swelling
[2]; dose 1 μg/mL
  A570 nm/A630 nm: 1.1137 ± 0.0370
  PI (%): 11.17%
[2]; dose 2 μg/mL
  A570 nm/A630 nm: 1.0250 ± 0.0230
  PI (%): 18.24%
[2]; dose 4 μg/mL
  A570 nm/A630 nm: 0.8986 ± 0.0731
  PI (%): 28.32%
[2]; dose 8 μg/mL
  A570 nm/A630 nm: 0.7243 ± 0.0421
  PI (%): 42.23%
[2]; dose 16 μg/mL
  A570 nm/A630 nm: 0.6400 ± 0.0661
  PI (%): 48.95%
[2]; dose 32 μg/mL
  A570 nm/A630 nm: 0.5034 ± 0.0286
  PI (%): 59.85%
[2]; dose 64 μg/mL
  A570 nm/A630 nm: 0.3867 ± 0.0195
  PI (%): 69.16%
[2]; dose 128 μg/mL
  PI (%): 76.59%
[2]; dose 256 μg/mL
  A570 nm/A630 nm: 0.1777 ± 0.0212
  PI (%): 85.83%
[3]; compared with the ConA group
  inhibition of mouse spleen lymphocytes: could inhibit mouse spleen lymphocytes to some extent
[3]; dose 8 μg/mL
  A570 nm/A630 nm: 0.5514 ± 0.0187
  PI (%): 6.84%
[3]; dose 32 μg/mL
  A570 nm/A630 nm: 0.4637 ± 0.0155
  PI (%): 21.66%
[3]; dose 128 μg/mL
  A570 nm/A630 nm: 0.3825 ± 0.0103
  PI (%): 35.38%
[4]; dose 1 μg/mL
  A570 nm/A630 nm: 1.1122 ± 0.0374
  PI (%): 8.98%
[4]; dose 2 μg/mL
  A570 nm/A630 nm: 1.0149 ± 0.0253
  PI (%): 16.94%
[4]; dose 4 μg/mL
  A570 nm/A630 nm: 0.8231 ± 0.0396
  PI (%): 32.64%
[4]; dose 8 μg/mL
  A570 nm/A630 nm: 0.7231 ± 0.0215
  PI (%): 40.82%
[4]; dose 8 μg/mL, listed as protein II
  PI (%): about 40%
[4]; dose 16 μg/mL
  A570 nm/A630 nm: 0.5216 ± 0.0192
  PI (%): 57.31%
[4]; dose 32 μg/mL
  A570 nm/A630 nm: 0.4398 ± 0.0347
  PI (%): 64.01%
[4]; dose 64 μg/mL
  A570 nm/A630 nm: 0.3378 ± 0.0286
  PI (%): 72.35%
[4]; dose 128 μg/mL
  A570 nm/A630 nm: 0.2203 ± 0.0147
  PI (%): 81.97%
[4]; dose 256 μg/mL
  A570 nm/A630 nm: 0.0987 ± 0.0159
  PI (%): 91.92%
[5]
  effect on iris neovascularization: could inhibit neovascularization and regress the formed blood vessels
